Laboratory results published in US20240117030A1 (Pfizer, published 2024).

T1: recombinant human IL-33 (human, UniProt O95760 112-270, limits assumed)
T1 sequence (looked up): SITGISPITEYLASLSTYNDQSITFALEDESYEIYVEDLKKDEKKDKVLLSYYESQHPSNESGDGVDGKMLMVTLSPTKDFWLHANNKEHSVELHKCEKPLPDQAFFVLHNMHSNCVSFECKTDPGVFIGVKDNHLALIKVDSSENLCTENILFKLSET

T2: recombinant human IL-4 (human, UniProt P05112 25-153)
T2 sequence (looked up): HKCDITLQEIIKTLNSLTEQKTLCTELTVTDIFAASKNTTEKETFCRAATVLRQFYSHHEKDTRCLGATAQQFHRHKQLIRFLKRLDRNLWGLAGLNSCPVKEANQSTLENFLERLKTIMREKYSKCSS


How the values were obtained:
Experiment in all cases: cell-based or functional assay
recombinant human IL-33 = target: T1, recombinant human IL-33
recombinant human IL-4 = target: T2, recombinant human IL-4
recombinant human IL-13 = recombinant human IL-13 (human, UniProt P35225 35-146)
Chain of recombinant human IL-13 (P35225 35-146 limits assumed): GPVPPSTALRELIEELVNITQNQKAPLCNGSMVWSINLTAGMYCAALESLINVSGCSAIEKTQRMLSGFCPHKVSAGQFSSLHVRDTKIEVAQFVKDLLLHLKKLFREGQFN

IL-33 WT Activation of SEAP Reporter Cells, potency of cytokine neutralization (recombinant human IL-33)	IL-4 Induced CD23 Expression, potency of cytokine neutralization (recombinant human IL-4)	IL-13 Induced CD23 Expression, potency of cytokine neutralization (recombinant human IL-13)	Binder
21 pM	13.9 pM	8.97 pM	IL13433-1261 (other) heavy: EVQLVESGGGLVQPGGSLRLSCAASGFTFSSYWMYWVRQAPGKGLEWVAAITPNAGEDYYPESVKGRFTISRDNAKNSLYLQMNSLRAEDTAVYYCARGQYYYTKYSLGYWGQGTLVTVSSASTKGPSVFPLAPSSKSTSGGTAALGCLVKDYFPEPVTVSWNSGALTSGVHTFPAVLQSSGLYSLSSVVTVPSSSLGTQTYICNVNHKPSNTKVDKKVEPKSCDKTHTCPPCPAPEAAGAPSVFLFPPKPKDTLMISRTPEVTCVVVDVSHEDPEVKFNWYVDGVEVHNAKTKPREEQYNSTYRVVSVLTVLHQDWLNGKEYKCKVSNKALPAPIEKTISKAKGQPREPQVYTLPPSREEMTKNQVSLTCLVKGFYPSDIAVEWESNGQPENNYKTTPPVLDSDGSFFLYSRLTVDKSRWQQGNVFSCSVLHEALHSHYTQKSLSLSPGK chain 1: DIQMTQSPSSLSASVGDRVTITCKASESVDHFGWSLVHWYQQKPGKAPKLLIYRASNLESGVPSRFSGSGSGTDFTLTISSLQPEDFATYYCQQSNEDPWTFGGGTKVEIKRTVAAPSVFIFPPSDEQLKSGTASVVCLLNNFYPREAKVQWKVDNALQSGNSQESVTEQDSKDSTYSLSSTLTLSKADYEKHKVYACEVTHQGLSSPVTKSFNRGECGGGGSEVTLRESGPALVKPTQTLTLTCTFSGFSLSNFGEGLSWIRQPPGKGLEWLAHIYWDDDKRYNPSLKSRLTISKDTSRNQVVLTMTNMDPVDTATYYCARRETVFYWYFDVWGQGTTVTVSSASTKGPSVFPLAPSSKSTSGGTAALGCLVKDYFPEPVTVSWNSGALTSGVHTFPAVLQSSGLYSLSSVVTVPSSSLGTQTYICNVNHKPSNTKVDKKVEPKSCDKTHTCPPCPAPEAAGAPSVFLFPPKPKDTLMISRTPEVTCVVVDVSHEDPEVKFNWYVDGVEVHNAKTKPREEQYNSTYRVVSVLTVLHQDWLNGKEYKCKVSNKALPAPIEKTISKAKGQPREPQVYTLPPSREEMTKNQVSLTCEVKGFYPSDIAVEWESNGQPENNYKTTPPVLDSDGSFFLYSKLTVDKSRWQQGNVFSCSVLHEALHSHYTQKSLSLSPGK light 1: DIQMTQSPSSLSASVGDRVTITCRASQPIHNHLDWYQQKPGKAPKLLIYFGKNLQEGVPSRFSGSGSGTDFTLTISSLQPEDFATYYCFQYKKGWSFGGGTKVEIKRTVAAPSVFIFPPSDEQLKSGTASVVCLLNNFYPREAKVQWKVDNALQSGNSQESVTEQDSKDSTYSLSSTLTLSKADYEKHKVYACEVTHQGLSSPVTKSFNRGEC light 2: DIQMTQSPSSLSASVGDRVTITCRASQSVDEEGDSYMNWYQQKPGKAPKLLIYAASNLESGVPSRFSGSGSGTDFTLTISSLQPEDFATYYCQQSNKDPPTFGGGTKVEIKRTVAAPSVFIFPPSDEQLKSGTASVVCLLNNFYPREAKVQWKVDNALQSGNSQESVTEQDSKDSTYSLSSTLTLSKADYEKHKVYACEVTHQGLSSPVTKSFNRGEC chain 2: EVQLVESGGGLVQPGGSLRLSCAASGFTFSSYAMSWVRQAPGKGLEWVASISSGDTTYYPDSVKGRFTISRDNAKNSLYLQMNSLRAEDTAVYYCARNEGYYFGLTLWGQGTLVTVSSASTKGPSVFPLAPSSKSTSGGTAALGCLVKDYFPEPVTVSWNSGALTSGVHTFPAVLQSSGLYSLSSVVTVPSSSLGTQTYICNVNHKPSNTKVDKKVEPKSC
12 pM	16.5 pM	7.58 pM	IL13433-1270 (other) heavy: EVQLVESGGGLVQPGGSLRLSCAASGFTFSSYWMYWVRQAPGKGLEWVAAITPNAGEDYYPESVKGRFTISRDNAKNSLYLQMNSLRAEDTAVYYCARGQYYYTKYSLGYWGQGTLVTVSSASTKGPSVFPKAPSSKSTSGGTAALGCLVKDYFPEPVTVSWNSGALTSGVHTFPAVLQSSGLYSLSSSVTVPSSSLGTQTYICNVNHKPSNTKVDKKVEPKSCDKTHTCPPCPAPEAAGAPSVFLFPPKPKDTLMISRTPEVTCVVVDVSHEDPEVKFNWYVDGVEVHNAKTKPREEQYNSTYRVVSVLTVLHQDWLNGKEYKCKVSNKALPAPIEKTISKAKGQPREPQVCTLPPSREEMTKNQVSLWCLVKGFYPSDIAVEWESNGQPENNYKTTPPVLDSDGSFFLYSKLTVDKSRWQQGNVFSCSVLHEALHSHYTQKSLSLSPGK chain 1: DIQMTQSPSSLSASVGDRVTITCKASESVDHFGWSLVHWYQQKPGKAPKLLIYRASNLESGVPSRFSGSGSGTDFTLTISSLQPEDFATYYCQQSNEDPWTFGGGTKVEIKRTVAAPSVFIFPPSDEQLKSGTASVVCLLNNFYPREAKVQWKVDNALQSGNSQESVTEQDSKDSTYSLSSTLTLSKADYEKHKVYACEVTHQGLSSPVTKSFNRGECGGGGSEVTLRESGPALVKPTQTLTLTCTFSGFSLSNFGEGLSWIRQPPGKGLEWLAHIYWDDDKRYNPSLKSRLTISKDTSRNQVVLTMTNMDPVDTATYYCARRETVFYWYFDVWGQGTTVTVSSASTKGPSVFPEAPSSKSTSGGTAALGCLVKDYFPEPVTVSWNSGALTSGVHTFPAVLQSSGLYSLGSVVTVPSSSLGTQTYICNVNHKPSNTKVDKKVEPKSCDKTHTCPPCPAPEAAGAPSVFLFPPKPKDTLMISRTPEVTCVVVDVSHEDPEVKFNWYVDGVEVHNAKTKPREEQYNSTYRVVSVLTVLHQDWLNGKEYKCKVSNKALPAPIEKTISKAKGQPREPQVYTLPPCREEMTKNQVSLSCAVKGFYPSDIAVEWESNGQPENNYKTTPPVLDSDGSFFLVSKLTVDKSRWQQGNVFSCSVLHEALHSHYTQKSLSLSPGK light 1: DIQMTQSPSSLSASVGDRVTITCRASQPIHNHLDWYQQKPGKAPKLLIYFGKNLQEGVPSRFSGSGSGTDFTLTISSLQPEDFATYYCFQYKKGWSFGGGTKVEIKRTVAAPSVFIFPPSDEQLKSGTASVSCLLNNFYPREAKVQWKVDNALQSGNSQESVTEQDSKDSTYSLDSTLTLSKADYEKHKVYACEVTHQGLSSPVTKSFNRGEC light 2: DIQMTQSPSSLSASVGDRVTITCRASQSVDEEGDSYMNWYQQKPGKAPKLLIYAASNLESGVPSRFSGSGSGTDFTLTISSLQPEDFATYYCQQSNKDPPTFGGGTKVEIKRTVAAPSVFIFPPSDEQLKSGTASVSCLLNNFYPREAKVQWKVDNALQSGNSQESVTEQDSKDSTYSLKSTLTLSKADYEKHKVYACEVTHQGLSSPVTKSFNRGEC chain 2: EVQLVESGGGLVQPGGSLRLSCAASGFTFSSYAMSWVRQAPGKGLEWVASISSGDTTYYPDSVKGRFTISRDNAKNSLYLQMNSLRAEDTAVYYCARNEGYYFGLTLWGQGTLVTVSSASTKGPSVFPLAPSSKSTSGGTAALGCLVKDYFPEPVTVSWNSGALTSGVHTFPAVLQSSGLYSLSSVVTVPSSSLGTQTYICNVNHKPSNTKVDKKVEPKSC
13 pM	14.9 pM	8.88 pM	IL13433-1275 (other) heavy: EVQLVESGGGLVQPGGSLRLSCAASGFTFSSYWMYWVRQAPGKGLEWVAAITPNAGEDYYPESVKGRFTISRDNAKNSLYLQMNSLRAEDTAVYYCARGQYYYTKYSLGYWGQGTLVTVSSASTKGPSVFPLAPSSKSTSGGTAALGCLVKDYFPEPVTVSWNSGALTSGVHTFPAVLQSSGLYSLSSVVTVPSSSLGTQTYICNVNHKPSNTKVDKKVEPKSCDKTHTCPPCPAPEAAGAPSVFLFPPKPKDTLMISRTPEVTCVVVDVSHEDPEVKFNWYVDGVEVHNAKTKPREEQYNSTYRVVSVLTVLHQDWLNGKEYKCKVSNKALPAPIEKTISKAKGQPREPQVYTLPPSREEMTKNQVSLWCLVKGFYPSDIAVEWESNGQPENNYKTTPPVLDSDGSFFLYSKLTVDKSRWQQGNVFSCSVLHEALHSHYTQKSLSLSPGK chain 1: DIQMTQSPSSLSASVGDRVTITCKASESVDHFGWSLVHWYQQKPGKAPKLLIYRASNLESGVPSRFSGSGSGTDFTLTISSLQPEDFATYYCQQSNEDPWTFGGGTKVEIKRTVAAPSVFIFPPSDEQLKSGTASVVCLLNNFYPREAKVQWKVDNALQSGNSQESVTEQDSKDSTYSLSSTLTLSKADYEKHKVYACEVTHQGLSSPVTKSFNRGECGGGGSEVTLRESGPALVKPTQTLTLTCTFSGFSLSNFGEGLSWIRQPPGKGLEWLAHIYWDDDKRYNPSLKSRLTISKDTSRNQVVLTMTNMDPVDTATYYCARRETVFYWYFDVWGQGTTVTVSSASTKGPSVFPLAPSSKSTSGGTAALGCLVKDYFPEPVTVSWNSGALTSGVHTFPAVLQSSGLYSLSSVVTVPSSSLGTQTYICNVNHKPSNTKVDKKVEPKSCDKTHTCPPCPAPEAAGAPSVFLFPPKPKDTLMISRTPEVTCVVVDVSHEDPEVKFNWYVDGVEVHNAKTKPREEQYNSTYRVVSVLTVLHQDWLNGKEYKCKVSNKALPAPIEKTISKAKGQPREPQVYTLPPSREEMTKNQVSLSCAVKGFYPSDIAVEWESNGQPENNYKTTPPVLDSDGSFFLVSKLTVDKSRWQQGNVFSCSVLHEALHSHYTQKSLSLSPGK light 1: DIQMTQSPSSLSASVGDRVTITCRASQPIHNHLDWYQQKPGKAPKLLIYFGKNLQEGVPSRFSGSGSGTDFTLTISSLQPEDFATYYCFQYKKGWSFGGGTKVEIKRTVAAPSVFIFPPSDEQLKSGTASVVCLLNNFYPREAKVQWKVDNALQSGNSQESVTEQDSKDSTYSLSSTLTLSKADYEKHKVYACEVTHQGLSSPVTKSFNRGEC light 2: DIQMTQSPSSLSASVGDRVTITCRASQSVDEEGDSYMNWYQQKPGKAPKLLIYAASNLESGVPSRFSGSGSGTDFTLTISSLQPEDFATYYCQQSNKDPPTFGGGTKVEIKRTVAAPSVFIFPPSDEQLKSGTASVVCLLNNFYPREAKVQWKVDNALQSGNSQESVTEQDSKDSTYSLSSTLTLSKADYEKHKVYACEVTHQGLSSPVTKSFNRGEC chain 2: EVQLVESGGGLVQPGGSLRLSCAASGFTFSSYAMSWVRQAPGKGLEWVASISSGDTTYYPDSVKGRFTISRDNAKNSLYLQMNSLRAEDTAVYYCARNEGYYFGLTLWGQGTLVTVSSASTKGPSVFPLAPSSKSTSGGTAALGCLVKDYFPEPVTVSWNSGALTSGVHTFPAVLQSSGLYSLSSVVTVPSSSLGTQTYICNVNHKPSNTKVDKKVEPKSC
